Earlier results as cited in article PMC10772121.

How the values were obtained:
KIR2DL2 (Homo sapiens) = KIR2DL2 (Homo sapiens) (UniProt P43627); assay: ELISA
KIR2DS4 (Homo sapiens) = KIR2DS4 (Homo sapiens) (UniProt P43632); assay: ELISA
KIR2DS4 (Homo sapiens), sequence (P43632 22-245): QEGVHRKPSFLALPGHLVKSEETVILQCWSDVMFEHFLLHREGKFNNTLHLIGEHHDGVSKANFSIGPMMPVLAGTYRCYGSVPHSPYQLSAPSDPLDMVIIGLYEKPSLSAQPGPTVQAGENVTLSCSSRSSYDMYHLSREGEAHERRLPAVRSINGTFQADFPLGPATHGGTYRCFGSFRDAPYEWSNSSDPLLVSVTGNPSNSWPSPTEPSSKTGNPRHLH

KIR2DL2 (Homo sapiens), sequence (P43627 22-245): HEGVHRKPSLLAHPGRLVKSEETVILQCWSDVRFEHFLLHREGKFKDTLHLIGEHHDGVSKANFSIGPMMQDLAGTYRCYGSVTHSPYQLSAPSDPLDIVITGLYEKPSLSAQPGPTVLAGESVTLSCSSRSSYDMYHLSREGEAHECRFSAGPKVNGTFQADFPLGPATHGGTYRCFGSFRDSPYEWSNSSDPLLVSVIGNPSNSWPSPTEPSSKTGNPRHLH

Kd (KIR2DL2 (Homo sapiens)): 0.06 nM
Kd (KIR2DS4 (Homo sapiens)): 20 nM
Substance: Lirilumab
